This is an account of results in the supplement of paper PMC9170038.

For the data set, the system named is MS2 coat protein. The experiment in a line: apparent KD of MS2 coat protein; higher = weaker reporter binding. The following applies: Eterna round: R107. Summed up: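 Apparent KD is reported per design as the median of normalised binding-curve fits across its clusters. The RNA switches were made by on-chip transcription from Illumina sequencing clusters. SNAP-549-labelled MS2 coat protein was then added in twofold steps (0.7 or 1.5 nM to 3 µM; 0.8–1.5 h to 10–20 min per step) in 100 mM Tris-HCl pH 7.5, 80 mM KCl, 4 mM MgCl2, without or with constant ligand.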

[1] abbreviates: input ligand: theophylline 20 uM.
The mark [2] stands for this setting: input ligand: theophylline 2 mM.
Setting [3] is: input ligand: tryptophan 2.4 mM.

Take “GUCCUCAUGACGGCCGCCACUAAACAUGAGGAUCACCCAUGUAAUGAUCCAUUAAAUGAUAAUAGUAGGACCGGGUCAAAAUAAA [Same State Typptophan B GF11]”: the “apparent KD of MS2 coat protein” value (input ligand: arginine 13.2 mM) is 135 nM, the “apparent KD of MS2 coat protein” value under setting [1] worked out at 833 nM and the “apparent KD of MS2 coat protein” value under setting [2] came out at 979 nM.
The matching figures for “GUCCUCGACACGGCCGCCACUGGCUCGCCUGUUGGCGCCGACCCACAUGAGGAUCACCCAUGUUCCAGGACCGGGUGUCACAGCA [theeternabot_sameState_MS2_Trp_B_42]”: 64.6 nM, 312 nM and 311 nM.
As to “GUCGCUGAGAGAAGGAGCGUGAAGACAUGAGGAUCACCCAUGUAGAGGCGCCGAAGGCGUUCGCAGGUAGGUCGCUCUCAGUGAC [#1 Same State - Arginine B Attempt #21 (HarryS)]”, the “apparent KD of MS2 coat protein” value (input ligand: arginine 13.2 mM) worked out at 10.2 nM; the “apparent KD of MS2 coat protein” value (input ligand: none) stood at 15.4 nM; the “apparent KD of MS2 coat protein” value under setting [1] stood at 19.2 nM; the “apparent KD of MS2 coat protein” value under setting [2] is 21.8 nM; the “apparent KD of MS2 coat protein” value under setting [3] was 17.3 nM.
The matching figures for “GUCGGAGUCGGAAGGAGCGACAUGAGGAUCACCCAUGUCUCCCGUUAUGGGAGUUCCUUAGGUCAGGUAGGUCGCCGACUCCGAC [#1 Exclusion - Arginine B Attempt #24 (Inspired by Omei)]”: 104 nM, 190 nM, 202 nM, 234 nM and 240 nM.
In the case of “GUCUCUGAGAGAAGGAGCGUGAAGACAUGAGGAUCACCCAUGUAGAGGCGCCGACGGCGUUCGCAGGUAGGUCGCUCUCAGAGAC [#1 Same State - Arginine B Attempt #19 (HarryS)]”, the “apparent KD of MS2 coat protein” value stood at 38.4 nM (input ligand: arginine 13.2 mM); 22 nM (input ligand: none); 35 nM under setting [1]; 17.1 nM under setting [2]; 23.7 nM under setting [3].
As to “GUCUUUGACGAUCUGGGAAAACCAGAUCGACGAGGACCGGUACGGCCGCCACUCGUGUUUUCUUUACAUGAGGAUCACCCAUGUA [#17 Tryptophan A Same State]”, the “apparent KD of MS2 coat protein” value (input ligand: arginine 13.2 mM) is 13.2 nM, the “apparent KD of MS2 coat protein” value under setting [1] is 15.7 nM and the “apparent KD of MS2 coat protein” value under setting [2] turned out to be 15.1 nM.
The matching figures for “GUGAAGUUAGUGAGCGUUAGUCAAGCCAAACGAGGACCGGUACGGCCGCCACUCGCGCAUCGACAUGAGGAUCACCCAUGUGCCG [theeternabot_exclusion_MS2_Trp_A_12]”: 18.4 nM, 15.7 nM and 17.7 nM.
As to “GUGACUUAAAGGCGCCAUUUGUGAUAGGAAGGAGCGGCGAAAUAGCCAGGUAGGUCGCCUAUACAUGAGGAUCACCCAUGUCACC [XARG-A 26]”, the “apparent KD of MS2 coat protein” value runs as follows: (input ligand: arginine 13.2 mM) 48.7 nM; (input ligand: none) 98.5 nM; under setting [1], 84.4 nM; under setting [2], 123 nM; under setting [3], 73.7 nM.
On to “GUGAGCGCCGAACAUCGCUGGUCCUCUAUCCGAGGACCGGUACGGCCGCCACUCGACAUGAGGAUCACCCAUGUUGGCACUGGCG [Inbemama]”, for which the “apparent KD of MS2 coat protein” value turned out to be 9.22 nM (input ligand: arginine 13.2 mM), 13.4 nM under setting [1] and 11.7 nM under setting [2].
In the case of “GUGCGGUCUGAUGAUACCAGAUGUGGUGGGAACAUGAGGAUCACCCAUGUUGUGAGGCAGGUCCCUUGGCAGCAUGAGUGAGCUU [TheoB-ms2@32-2]”, the “apparent KD of MS2 coat protein” value runs as follows: (input ligand: arginine 13.2 mM) 12.4 nM; (input ligand: none) 119 nM; under setting [1], 229 nM; under setting [2], 156 nM; under setting [3], 72.6 nM.
On to “GUGCUGGUAUCGGCCGCCACUGUAACAUGACAUCCCAGGGCCGACAUGAGGAUCACCCAUGUUAACAGGACCGGGAUAUCAACGA [Riorquen]”, for which the “apparent KD of MS2 coat protein” value (input ligand: arginine 13.2 mM) stood at 13.2 nM, the “apparent KD of MS2 coat protein” value under setting [1] came out at 28.9 nM and the “apparent KD of MS2 coat protein” value under setting [2] worked out at 19.5 nM.
Regarding “GUGGAGACACGAGAUACCAGUCUCUAUAACAUGAGGAUCACCCAUGUAAUGCUCCUCAGGGACCCUUGGCAGCUCAGUAUGAUGA [Exclusion - Theophylline B]”, the “apparent KD of MS2 coat protein” value (input ligand: arginine 13.2 mM) is 34.8 nM, the “apparent KD of MS2 coat protein” value under setting [1] is 54.5 nM and the “apparent KD of MS2 coat protein” value under setting [3] stood at 35.7 nM.
The matching figures for “GUUACAUGGCAAGCAUGUAUAUGGAUAGAUACCAGUUGAUAUUAAGACCCUUGGCAGCUGAGUACAUGAGGAUCACCCAUGUAAG [Theo A Ex t3]”: 28.4 nM, 46.9 nM and 51.9 nM.
On to “GUUAUAUGAAAACAUAUAACAGUGGGUGAACGAGGACCGGUACGGCCGCCACUCGGACAUGAGGAUCACCCAUGUCCAUGUGAAA [AstrosExyTryA#6]”, for which the “apparent KD of MS2 coat protein” value by setting is: (input ligand: arginine 13.2 mM) 15.2 nM; under setting [1], 17.4 nM; under setting [2], 22 nM.
As for “GUUCGUCCUACGGCCGCCACUAAAACACAUGAGGAUCACCCAUGUUAGUAUCCUGGCUGGUGUGAUAGGACCGGGUAGGGAAGAA [theeternabot_exclusion_MS2_Trp_B_14]”, the “apparent KD of MS2 coat protein” value was 11 nM (input ligand: arginine 13.2 mM), 13.6 nM under setting [1] and 10.8 nM under setting [2].
Regarding “GUUGGUUUGCGAAGGAGCGGGUAUGUUGUCUACUGGAUCCUAACAUGAGGAUCACCCAUGUCCCAGGUAGGUCGCGCGGGCUUUG [12.aB]”, the “apparent KD of MS2 coat protein” value (input ligand: arginine 13.2 mM) worked out at 34.1 nM; the “apparent KD of MS2 coat protein” value (input ligand: none) was 28.3 nM; the “apparent KD of MS2 coat protein” value under setting [1] is 56.3 nM; the “apparent KD of MS2 coat protein” value under setting [2] amounted to 52.2 nM; the “apparent KD of MS2 coat protein” value under setting [3] stood at 38.2 nM.
